Test results: publication PMC10786891, “Massively parallel profiling of RNA-targeting CRISPR-Cas13d”

T1: EsCas13d, nuclease-dead (Eubacterium siraeum, UniProt B0MS50, R295A;H300A;R849A;H854A)
T1 sequence: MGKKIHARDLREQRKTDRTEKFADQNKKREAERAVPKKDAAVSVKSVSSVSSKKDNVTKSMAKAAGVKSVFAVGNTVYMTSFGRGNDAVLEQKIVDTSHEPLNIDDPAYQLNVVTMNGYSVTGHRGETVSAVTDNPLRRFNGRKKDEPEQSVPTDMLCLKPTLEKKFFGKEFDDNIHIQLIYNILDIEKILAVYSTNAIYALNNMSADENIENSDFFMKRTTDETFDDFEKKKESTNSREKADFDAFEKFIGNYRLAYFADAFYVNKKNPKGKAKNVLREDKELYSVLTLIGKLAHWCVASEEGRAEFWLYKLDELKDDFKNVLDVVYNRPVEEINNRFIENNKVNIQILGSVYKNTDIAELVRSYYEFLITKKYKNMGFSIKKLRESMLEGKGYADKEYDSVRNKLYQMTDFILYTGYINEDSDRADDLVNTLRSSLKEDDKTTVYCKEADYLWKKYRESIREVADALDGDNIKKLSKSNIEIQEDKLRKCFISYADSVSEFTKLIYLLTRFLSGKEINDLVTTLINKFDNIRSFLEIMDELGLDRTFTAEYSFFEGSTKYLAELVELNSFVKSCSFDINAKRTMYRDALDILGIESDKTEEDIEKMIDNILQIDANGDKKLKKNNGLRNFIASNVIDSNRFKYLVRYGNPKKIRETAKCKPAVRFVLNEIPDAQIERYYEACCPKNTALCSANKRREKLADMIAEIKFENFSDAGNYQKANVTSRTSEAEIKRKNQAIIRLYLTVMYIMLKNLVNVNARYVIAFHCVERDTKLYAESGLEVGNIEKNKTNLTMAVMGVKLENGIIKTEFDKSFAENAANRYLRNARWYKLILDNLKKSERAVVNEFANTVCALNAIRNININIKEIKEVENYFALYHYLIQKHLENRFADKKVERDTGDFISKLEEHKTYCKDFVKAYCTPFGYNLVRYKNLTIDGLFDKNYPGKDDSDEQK


Molecular target: T1, EsCas13d, nuclease-dead
Assay: crRNA (strand 1, pre-loaded); Mg2+; 40 mM Tris-HCl pH 7.5, 150 mM NaCl, 6 mM MgCl2, 1 mM DTT, 0.1% Tween-20, 0.2 mg/ml BSA; 25 C; 10 min per concentration, then washed
Conditions: tags: His6-TwinStrep-SUMO cleaved; N-terminal SNAP kept (SNAP-Surface 488); label: 3' end held by stalled T7 RNA polymerase

Binder	Kd [nM]
target 1 G5C,U8C (mixed) RNA 1: CACCCGUGCAAAAAUGCAGGGGUCUAAAACUGAGCGGAUAACCUCUCUAUGG RNA 2: GGGAAUGGAUCCACAUCUACGAAUUCGUACCAUAGAGAGGUUACCCCCUCACCGAGAUCGGAAGAGCACACGU	6.4 ± 0.4
target 1 insG 3' of 3 (mixed) RNA 1: CACCCGUGCAAAAAUGCAGGGGUCUAAAACUGAGCGGAUAACCUCUCUAUGG RNA 2: GGGAAUGGAUCCACAUCUACGAAUUCGUACCAUAGAGAGGUUAUCCGCUGCACCGAGAUCGGAAGAGCACACGU	7.3 ± 0.6
target 1 insU 3' of 18,insG 3' of 11 (mixed) RNA 1: CACCCGUGCAAAAAUGCAGGGGUCUAAAACUGAGCGGAUAACCUCUCUAUGG RNA 2: GGGAAUGGAUCCACAUCUACGAAUUCGUACCAUAUGAGAGGUGUAUCCGCUCACCGAGAUCGGAAGAGCACACGU	78 ± 21
target 3 insA 3' of 3,insC 3' of 3 (mixed) RNA 1: CACCCGUGCAAAAUUGCAGGGGUCUAAAACGACCUGAAUAUUUCAGAUCAAA RNA 2: GGGAAUGGAUCCACAUCUACGAAUUCGUUUUUGAUCUGAAAUAUUCAGGACUCUGCAGAUCGGAAGAGCACACGU	22.8 ± 2.35
target 3 insA 3' of 6,insA 3' of 1 (mixed) RNA 1: CACCCGUGCAAAAUUGCAGGGGUCUAAAACGACCUGAAUAUUUCAGAUCAAA RNA 2: GGGAAUGGAUCCACAUCUACGAAUUCGUUUUUGAUCUGAAAUAUUCAAGGUCAUGCAGAUCGGAAGAGCACACGU	53 ± 18
target 3 U2A,U22A (mixed) RNA 1: CACCCGUGCAAAAUUGCAGGGGUCUAAAACGACCUGAAUAUUUCAGAUCAAA RNA 2: GGGAAUGGAUCCACAUCUACGAAUUCGUUAUUGAUCUGAAAUAUUCAGGACUGCAGAUCGGAAGAGCACACGU	32.8 ± 2.85
target 3 insA 3' of 7,insU 3' of 4 (mixed) RNA 1: CACCCGUGCAAAAUUGCAGGGGUCUAAAACGACCUGAAUAUUUCAGAUCAAA RNA 2: GGGAAUGGAUCCACAUCUACGAAUUCGUUUUUGAUCUGAAAUAUUACAGUGUCUGCAGAUCGGAAGAGCACACGU	12.7 ± 1.2
target 3 G4U,C6A (mixed) RNA 1: CACCCGUGCAAAAUUGCAGGGGUCUAAAACGACCUGAAUAUUUCAGAUCAAA RNA 2: GGGAAUGGAUCCACAUCUACGAAUUCGUUUUUGAUCUGAAAUAUUAAUGUCUGCAGAUCGGAAGAGCACACGU	29.5 ± 7.5
target 3 insU 3' of 9,insC 3' of 9 (mixed) RNA 1: CACCCGUGCAAAAUUGCAGGGGUCUAAAACGACCUGAAUAUUUCAGAUCAAA RNA 2: GGGAAUGGAUCCACAUCUACGAAUUCGUUUUUGAUCUGAAAUAUCUUCAGGUCUGCAGAUCGGAAGAGCACACGU	96.5 ± 19
target 3 G3U,U21A (mixed) RNA 1: CACCCGUGCAAAAUUGCAGGGGUCUAAAACGACCUGAAUAUUUCAGAUCAAA RNA 2: GGGAAUGGAUCCACAUCUACGAAUUCGUUUAUGAUCUGAAAUAUUCAGUUCUGCAGAUCGGAAGAGCACACGU	87.5 ± 15.5
target 3 insC 3' of 4,insC 3' of 4 (mixed) RNA 1: CACCCGUGCAAAAUUGCAGGGGUCUAAAACGACCUGAAUAUUUCAGAUCAAA RNA 2: GGGAAUGGAUCCACAUCUACGAAUUCGUUUUUGAUCUGAAAUAUUCAGCCGUCUGCAGAUCGGAAGAGCACACGU	34.5 ± 8.5
target 3 insU 3' of 16 (mixed) RNA 1: CACCCGUGCAAAAUUGCAGGGGUCUAAAACGACCUGAAUAUUUCAGAUCAAA RNA 2: GGGAAUGGAUCCACAUCUACGAAUUCGUUUUUGAUCUUGAAAUAUUCAGGUCUGCAGAUCGGAAGAGCACACGU	64 ± 8.5
target 3 insC 3' of 3,insU 3' of 1 (mixed) RNA 1: CACCCGUGCAAAAUUGCAGGGGUCUAAAACGACCUGAAUAUUUCAGAUCAAA RNA 2: GGGAAUGGAUCCACAUCUACGAAUUCGUUUUUGAUCUGAAAUAUUCAGGCUCUUGCAGAUCGGAAGAGCACACGU	46 ± 6
target 3 U2C,C6U (mixed) RNA 1: CACCCGUGCAAAAUUGCAGGGGUCUAAAACGACCUGAAUAUUUCAGAUCAAA RNA 2: GGGAAUGGAUCCACAUCUACGAAUUCGUUUUUGAUCUGAAAUAUUUAGGCCUGCAGAUCGGAAGAGCACACGU	52.5 ± 7
target 3 insC 3' of 12,insU 3' of 4 (mixed) RNA 1: CACCCGUGCAAAAUUGCAGGGGUCUAAAACGACCUGAAUAUUUCAGAUCAAA RNA 2: GGGAAUGGAUCCACAUCUACGAAUUCGUUUUUGAUCUGAACAUAUUCAGUGUCUGCAGAUCGGAAGAGCACACGU	~64.5
target 3 G3C,U22G (mixed) RNA 1: CACCCGUGCAAAAUUGCAGGGGUCUAAAACGACCUGAAUAUUUCAGAUCAAA RNA 2: GGGAAUGGAUCCACAUCUACGAAUUCGUUGUUGAUCUGAAAUAUUCAGCUCUGCAGAUCGGAAGAGCACACGU	79.5 ± 13
target 3 G3C,G4C (mixed) RNA 1: CACCCGUGCAAAAUUGCAGGGGUCUAAAACGACCUGAAUAUUUCAGAUCAAA RNA 2: GGGAAUGGAUCCACAUCUACGAAUUCGUUUUUGAUCUGAAAUAUUCACCUCUGCAGAUCGGAAGAGCACACGU	36.1 ± 5.75
target 3 A12G,U21A (mixed) RNA 1: CACCCGUGCAAAAUUGCAGGGGUCUAAAACGACCUGAAUAUUUCAGAUCAAA RNA 2: GGGAAUGGAUCCACAUCUACGAAUUCGUUUAUGAUCUGAGAUAUUCAGGUCUGCAGAUCGGAAGAGCACACGU	97.5 ± 47
target 3 insA 3' of 15,insA 3' of 2 (mixed) RNA 1: CACCCGUGCAAAAUUGCAGGGGUCUAAAACGACCUGAAUAUUUCAGAUCAAA RNA 2: GGGAAUGGAUCCACAUCUACGAAUUCGUUUUUGAUCUAGAAAUAUUCAGGUACUGCAGAUCGGAAGAGCACACGU	~64
target 3 C6U,U21G (mixed) RNA 1: CACCCGUGCAAAAUUGCAGGGGUCUAAAACGACCUGAAUAUUUCAGAUCAAA RNA 2: GGGAAUGGAUCCACAUCUACGAAUUCGUUUGUGAUCUGAAAUAUUUAGGUCUGCAGAUCGGAAGAGCACACGU	110 ± 40
target 3 insA 3' of 22,insG 3' of 5 (mixed) RNA 1: CACCCGUGCAAAAUUGCAGGGGUCUAAAACGACCUGAAUAUUUCAGAUCAAA RNA 2: GGGAAUGGAUCCACAUCUACGAAUUCGUUUAUUGAUCUGAAAUAUUCAGGGUCUGCAGAUCGGAAGAGCACACGU	23.1 ± 3.4
target 3 G4U,U22C (mixed) RNA 1: CACCCGUGCAAAAUUGCAGGGGUCUAAAACGACCUGAAUAUUUCAGAUCAAA RNA 2: GGGAAUGGAUCCACAUCUACGAAUUCGUUCUUGAUCUGAAAUAUUCAUGUCUGCAGAUCGGAAGAGCACACGU	4.65 ± 0.85
target 3 U2G,U8A (mixed) RNA 1: CACCCGUGCAAAAUUGCAGGGGUCUAAAACGACCUGAAUAUUUCAGAUCAAA RNA 2: GGGAAUGGAUCCACAUCUACGAAUUCGUUUUUGAUCUGAAAUAAUCAGGGCUGCAGAUCGGAAGAGCACACGU	21.6 ± 3.55
target 3 A11C,U22A (mixed) RNA 1: CACCCGUGCAAAAUUGCAGGGGUCUAAAACGACCUGAAUAUUUCAGAUCAAA RNA 2: GGGAAUGGAUCCACAUCUACGAAUUCGUUAUUGAUCUGAACUAUUCAGGUCUGCAGAUCGGAAGAGCACACGU	~90
